Measurements as given in patent publication WO2022250107A1 (dated 2022).

Biological target: S protein of SARS-CoV-2 wild strain JPN/TY/WK-521 (on infectious virus) (SARS-CoV-2, UniProt P0DTC2 14-1273)
Test: cell-based or functional assay

B1: EV053273 (antibody, V domains shown)
VH: QVQLVQSGAEVKEPGTSVKVSCKASGYIFTGYYIHWVRQAPGQGLEWMGWINPNSGGRNYTQKFQGRVTMTRDKSISTVYMELSGLRSDDTAIYYCARDNSWSTVQFCLDYWGQGTLVTVSS
VL: QSALTQPPSASGSPGQSVTISCTGTSSDVGSYNYVSWYQQYPGKAPKLMIYEVSKRPSGVPDRFSGSKSGNTASLTVSGLQAEDEADYYCSSYGGSNNLVFGGGTKLTVLG
- 中和活性 IC50 (inhibition of infection of VeroE6/TMPRSS2 cells): ≤ 10 ng/mL
